# Assay results reported in US20080076717A1.
# Target: SPR-8: ASARM-PO4 biotin
# Assay: SPR (Biacore 3000): biotinylated ASARM-PO4 captured on neutravidin, PHEX as analyte
substance,measurement,value
PHEX (free soluble-PHEX analyte) (from UniProt P78562 46-749) (enzyme),Kd,168 nM
